Experimental data published in US20040202655A1 (published 2004).
Several values for one entry are separate records, joined by “and”; a condition that tells them apart may be missing. Identical values can stand only once.

Key:
[1] = molecular target: T1, human IGF-I receptor on cells (NIH-3T3 fibroblasts expressing the human IGF-IR; DU145 cells) (human, UniProt P08069 31-1367); assay: competition with 125I-IGF-II, NIH-3T3 cells expressing human IGF-1R, 37 C
T1 construct: whole, on cells; Mature receptor is an alpha2-beta2 tetramer cut from one precursor; also called IGF-1R; hu-IGF-1R

[2] = molecular target: T1, human IGF-I receptor on cells (NIH-3T3 …); assay: competition with 125I-IGF-II, NIH-3T3 cells expressing human IGF-1R, 4 C
Method: (§1) NIH-3T3 fibroblasts expressing the human IGF-IR, or NIH-3T3 non-transfected fibroblasts were plated at 6×10⁴ cells per well in 0.5 ml of DMEM (Gibco, #11960-044) supplemented with 10% heat-inactivated fetal bovine serum (Gibco, #16140-071), 2 mM L-glutamine (Gibco, #25030-081) and 50 U/ml penicillin-streptomycin (Gibco, #15070-063). The NIH-3T3 cells were used as a control for non-specific cell binding. The plates were incubated at 37° C./5% CO₂ for 24 hours to allow cells to attach and become 80-90% confluent. The overlying media was then replaced with 0.5 ml per well of starvation media consisting of DMEM, 20 mM Hepes (Gibco, #15630-080), 2 mM L-glutamine and 0.1% bovine serum albumin (Equitech-Bio, protease-free, Kerrville, Tex.) and the plates were incubated at 37° C., 5% CO₂ overnight. All subsequent binding steps were conducted at 4° C. Test antibodies were diluted in ice-cold starvation media to the desired final concentration and 100 μl added per well. All samples were performed in duplicate. […] Cell monolayers were washed three times with ice-cold PBS (Gibco, #14040-117) and cells and associated radioactivity were released by adding 0.5ml 2% sodium dodecyl sulfate/0.2N NaOH to each well and heating the plates at 60° C. for 15 minutes. Lysate associated radioactivity was quantitated by gamma scintillation spectrometry. Alternatively, the same described experiment was performed with preincubation with the test antibodies at 37° C. for 10 minutes, followed by 10 minutes incubation at 37° C. after addition of 400 pM of the iodinated radioligand.

[3] = molecular target: T1, human IGF-I receptor on cells (NIH-3T3 …); assay: cell-based or functional assay
[4] = molecular target: T1, human IGF-I receptor on cells (NIH-3T3 …); assay: competition with 125I-IGF-I, NIH-3T3 cells expressing human IGF-1R, 37 C
Method: as §1, with “Alternatively, the same described experiment was performed with preincubation with the test antibodies at 37° C. for 10 minutes, followed by 10 minutes incubation at 37° C. after addition of 400 pM of the iodinated radioligand.” left out

[5] = molecular target: T1, human IGF-I receptor on cells (NIH-3T3 …); assay: saturation binding of 125I-labelled IgG to NIH-3T3 cells expressing human IGF-1R, on ice; unit inferred
Method: The mixtures were in incubated on ice for 70 min. After the incubation the tubes were centrifuged at 1000 rpm for 1 min and the supernatant fractions were removed by aspiration. The cell pellets were washed with 50 μl of ice-cold Hanks' Balanced Salt Solution containing 0.2% BSA and 20 mM Hepes and centrifuged at 1000 rpm for […] and the supernatant fractions were removed by aspiration. The resulting cell pellets were counted in Perkin Elmer Cobra Quantum gamma counter. […] The specific binding was obtained by subtracting the non-specific binding counts from the total binding counts in corresponding pairs.

[6] = molecular target: T1, human IGF-I receptor on cells (NIH-3T3 …); assay: competition with 125I-IGF-I, NIH-3T3 cells expressing human IGF-1R, 4 C
Method: as §1

[7] = molecular target: T1, human IGF-I receptor on cells (NIH-3T3 …); assay: cell-based or functional assay; remark: listed apart in the source

B1: PINT-11A4 IgG (antibody, V domains shown)
VH: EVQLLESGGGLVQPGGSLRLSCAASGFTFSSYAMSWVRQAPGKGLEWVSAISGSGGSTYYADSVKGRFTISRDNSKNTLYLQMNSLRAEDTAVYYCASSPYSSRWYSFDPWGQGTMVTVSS
VL: LSYELTQPPSVSVSPGQTATITCSGDDLGNKYVSWYQQKPGQSPVLVIYQDTKRPSGIPERFSGSNSGNIATLTISGTQAVDEADYYCQVWDTGTVVFGGGTKLTVLG
IC50 [1]: 3 nM and 2.6 nM
IC50 [2]: > 75 nM
IC50 (nM), IGF-1 dependent proliferation of NIH-3T3/hIGF-1R cells (BrdU ELISA) [3]: 3.4 nM and 2.6 nM
IC50 [4]: 1.9 nM
Kd [5]: 2.24 nM
IC50 [6]: > 100 nM
Antagonist Assay IC50 (nM), IGF-I-induced IGF-1R tyrosine phosphorylation (ELISA) [7]: 2.4 nM and 3.3 nM
